“Also recorded” adds a separate entry of the source.
Assays:
[1] = target: T1, human complement 5a receptor (C5aR) (Homo sapiens, UniProt P21730); test: Specific binding of [^3H]‐C5a^CF to C5aR (optimization of translation and assay conditions)
T1 construct: 10x His (N); FLAG (N); StrepII (C); made in house; host or cells: Sf9 insect cells (recombinant baculovirus, pOET5 / flashBAC); membrane preparation
T1 sequence (P21730 1-350): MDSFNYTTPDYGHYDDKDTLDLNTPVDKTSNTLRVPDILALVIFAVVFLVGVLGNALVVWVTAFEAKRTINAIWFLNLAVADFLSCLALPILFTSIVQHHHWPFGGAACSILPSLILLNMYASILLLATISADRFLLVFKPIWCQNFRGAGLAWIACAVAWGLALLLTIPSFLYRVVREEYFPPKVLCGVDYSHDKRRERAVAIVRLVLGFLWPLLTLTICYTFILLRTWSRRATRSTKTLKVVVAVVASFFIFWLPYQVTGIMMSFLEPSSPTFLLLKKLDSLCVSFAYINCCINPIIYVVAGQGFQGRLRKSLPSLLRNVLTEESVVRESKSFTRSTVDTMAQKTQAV
Method: For the cell‐free synthesis of radioligands one amino acid was replaced with a tritiated variant depending on its abundance in the respective ligand. Complement 5a was produced in the presence of 1 μM (FM)/2.1 μM (RM) L‐[2,3‐^3H]‐proline (specific activity 55 Ci·mmol^−1, Perkin Elmer, Boston, USA). […] The cell‐free reaction was initiated omitting the labelled amino acid and incubated at 30 °C, 100 rpm for 3 h. The reaction mix was removed from the D‐tube™ dialyzer and incubated with 0.2 mL Ni‐NTA magnetic agarose beads suspension (Qiagen) per mL reaction mix for 10 min to remove undesired side products translated with endogenously present amino acids from the S30 extract. The reaction mix was removed from the magnetic beads, supplemented with 0.25 mM L‐histidine to account for potential losses in the IMAC (immobilized metal ion affinity chromatography) step and the tritium‐labelled amino acid. The feeding mix was discarded and replaced with a fresh mix containing the labelled amino acid. Reactions were incubated at 30 °C in a water bath under constant shaking overnight.
For purification of tritium‐labelled complement 5a ([^3H]‐C5a^CF), reaction and feeding mixes were pooled and applied to a 1 mL HisTrap FF column (GE Healthcare) equilibrated in buffer C^C5a using a peristaltic pump. The column was washed with 4 CV buffer C1^C5a, 4 CV buffer C2^C5a and eluted in 4 CV buffer D^C5a. […] Buffer exchange to buffers C^C5a or C^ET−1 was performed by repeated concentration and dilution in a 3 kDa MWCO concentrator (Amicon) and protein concentration was calculated using the specific activity of incorporated [^3H]‐Pro or [^3H]‐Phe residues.
The complement 5a receptor was coproduced with Gαi2 in Sf9 insect cells. The cDNA encoding the human complement 5a receptor flanked by an N‐terminal 10x His and FLAG tag and a C‐terminal StrepII tag was cloned into the pOET5 transfer vector (Oxford Expression Technologies, Oxford, UK). pOET5 contains two expression cassettes, the receptor is expressed under the control of a polyhedron promoter; Gαi2 expression is regulated by a p10 promoter. […]

C5aR = C5aR in native human tissues; literature comparison; cited from earlier work
Method: Table 1 Binding parameters of cell‐free synthesized radioligands | column: Literature KD [nM] || As the interaction between C5a and its receptor is mainly mediated by the disulphide bridged core region of C5a (residues 21–55, 22) and the C‐terminal region (especially Arg^74 30) the N‐terminal hexa‐histidine tag was not removed. The cell‐free synthesized ligand binds to the complement 5a receptor with a dissociation constant of 1.18 ± 0.27 nM (Fig. 4A), which corresponds to values determined by Gerard and Gerard for C5aR in native human tissues (1 nM 31, Table 1). Competition experiments with the unlabelled small molecule inverse agonist NDT 9513727 and the peptide antagonist H2N‐ChaW resu ...

B1: [^3H]‐C5a^CF: cell‐free‐synthesized tritium‐labelled complement 5a with N‐terminal hexa‐histidine tag; contains three proline residues (protein, UniProt P01031 678-751, looked up)
C5a anaphylatoxin: TLQKKIEEIAAKYKHSVVKKCCYDGACVNNDETCEQRAARISLGPRCIKAFTECCVVASQLRANISHKDMQLGR
modifications: C5a anaphylatoxin tritium label
- Specific binding to the C5aR ([1]; first translation trials, produced with DsbA and IMAC purified, no pretranslation step): only low and nonsignificant binding to the C5aR; also recorded: specific binding is low and nonsignificant
- Specific binding to the C5aR ([1]; pretranslation step plus NaCl in assay and wash buffer): further increases the detected specific binding
- Specific binding to the C5aR ([1]; with pretranslation step to remove endogenous proline): binding specifically to the C5aR and displaying low nonspecific background; also recorded: strongly increased (dark grey bar) and statistically significant
- Kd (C5aR): 1 nM

Source: publication PMC4794788, “Cell‐free synthesis of isotopically labelled peptide ligands for the functional characterization of G protein‐coupled receptors” (FEBS Open Bio, 2015)
